Article PMC5542768, “Structural insight into the activation of a class B G-protein-coupled receptor by peptide hormones in live human cells” (eLife, 2017)
Non-standard residues stand in square brackets, D forms with d. No end group written: not given here. *: point of attachment. Nle = CCCC[C@H](N)C(=O)O; ClAc = O=C(CCl)*

Assays:
CRF1R [1] = target: T1, CRF1R (Rattus norvegicus, UniProt P35353); assay: cAMP accumulation assay via luciferase reporter (ligand alone); format: cell-based; conditions: for EC50: cAMP level via luciferase reporter, transiently transfected HEK293 cells, 3 hr stimulation at 37°C; for EC50 / Receptor activation at 100 nM: mean ± s.e.m., at least three independent experiments, each in triplicate; for Receptor activation at 100 nM: 100 nM peptide, normalized to either Ucn1 or CRF, HEK293; for CRF1R activation / residual activity up to the maximal tested concentration of 100 nM: Figure 1B legend; for CRF1R activation / residual activity up to the maximal tested concentration of 100 nM / EC50 (Figure 1B legend): HEK293, luciferase reporter; for EC50 (Figure 1B legend): agrees with literature data
T1 construct: all our experimental data are obtained from the intact full-length, fully glycosylated receptor at the membrane of the live cell; expressed in transfected cells; host or cells: HEK293 (transient co-transfection with CRE-luciferase reporter and Renilla plasmid)
T1 sequence (P35353 24-415): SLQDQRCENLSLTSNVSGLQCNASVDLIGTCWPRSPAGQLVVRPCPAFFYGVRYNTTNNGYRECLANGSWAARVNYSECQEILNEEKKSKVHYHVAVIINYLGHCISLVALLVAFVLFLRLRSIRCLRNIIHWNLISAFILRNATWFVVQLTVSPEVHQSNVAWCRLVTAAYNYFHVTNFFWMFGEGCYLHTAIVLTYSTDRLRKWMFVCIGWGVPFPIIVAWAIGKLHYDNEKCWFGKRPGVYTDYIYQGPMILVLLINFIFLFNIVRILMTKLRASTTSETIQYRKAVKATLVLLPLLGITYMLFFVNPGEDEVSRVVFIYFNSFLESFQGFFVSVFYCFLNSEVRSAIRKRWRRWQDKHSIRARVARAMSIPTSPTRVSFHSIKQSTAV
Description: Figure 1. Photo-crosslinking mapping of CRF1R to determine footprints of agonists and antagonists. (A) Sequence alignment of CRF1R peptide ligands. The classification into N-terminus, C-terminus and helical connector is adopted from [Beyermann et al. (2000]). […] In ^dFXCRF(12-41), substitutions of the two native Met residues to Nle and the N-terminal D-amino acid to enhance its stability and potency ([Rivier and Rivier, 2014]). […] The assay measures cAMP accumulation in live HEK293 cells stimulated with serial dilutions of each ligand via a luciferase reporter. Plots are representative mean ± s.e.m. of at least three independent experiments, each run in triplicates. (B) CRF1R activation elicited by each of the ligands used in this study. […] (E) Photo-crosslinking experiments. Transiently transfected 293T cells expressing each Azi-CRF1R mutant (residues replaced by Azi are indicated in the upper row) were incubated with each of the five peptide ligands indicated in the right column, followed by UV irradiation (365 nm). […] To obtain sharper bands, samples were deglycosylated by PNGaseF. The subdivision of transmembrane helices and ECLs is based on the crystal structure of the CRF1R TMD ([Hollenstein et al., 2013]). […] DOI: http://dx.doi.org/10.7554/eLife.27711.002 Figure 1—source data 1. Numerical values of cAMP accumulation assay. The assay measures cAMP accumulation in live HEK293 cells stimulated with serial dilutions of each ligand via a luciferase reporter. Raw luminescence data of the firefly reporter luciferase were normalized to the Renilla control and to 100% activation of agonists. At least three independent experiments were performed per ligand, and each experiment was run in triplicate. Values in the table represent a single measurement. Mean ± s.e.m. of triplicates for one representative experiment are reported in Figure 1B–D. DOI: http://dx.doi.org/10.7554/eLife.27711.003 Figure 1—source data 2. Numerical values of whole-cell ELISA of HA-Azi-CRF1R mutants. Related to Figure 1—figure supplement 1. The absorption was measured at 492 nm. Each data point was obtained as mean of three independent experiments, each performed in triplicate. Mean ± s.e.m. of the means of the triplicates are plotted in Figure 1—figure supplement 1B. DOI: http://dx.doi.org/10.7554/eLife.27711.004 Figure 1—figure supplement 1. Expression profiles of a subset of Azi-CRF1R mutants. […] (A) Whole-cell lysates of 293T cells transiently expressing each Azi-CRF1R mutant were resolved on 10% SDS-PAGE and analyzed by Western blotting using an M2 anti-FLAG-HRP antibody. The Azi mutation site is indicated in the top row. […] (B) Whole-cell ELISA of HA-Azi-CRF1R mutants. The absorptions at 492 nm (OD492) are shown as mean ± s.e.m. obtained from three independent experiments each performed in triplicates and normalized to wild type (wt). The positions replaced by Azi are identical to (A). DOI: http://dx.doi.org/10.7554/eLife.27711.005 [drawing 1]
The day prior to transfection, 6 × 10^6 HEK293 cells were seeded in 10 cm dishes. Cells were co-transfected with 0.5 µg of plasmid encoding the wild-type CRF1R gene under control of a PGK promoter, 5 µg of the reporter construct (humanized PpyRE9 [[Branchini et al., 2010]] firefly luciferase gene driven by a cAMP-responsive element and followed by a PEST sequence), and 0.5 µg of plasmid encoding Renilla luciferase driven by a CMV promoter. Transfection was performed using PEI max as described above. The following day, cells were trypsinized and transferred into a 96-well plate at a density of 180,000 cells per well.

[2] = target: corticotropin-releasing factor receptor type 1 (CRF1R), wild type (rat) (UniProt P35353)
CRF1R [3] = conditions: ref Gulyas et al., 1995; cited from earlier work

Substance	Receptor activation at 100 nM [%] (cAMP accumulation, normalized to Ucn1 or CRF) [2]	EC50 of cAMP accumulation (CRE-luciferase reporter) in HEK293 cells transfected with CRF1R [2] [nM]	further results
SEEPPISLDLTFHLK(ClAc)REVLE[Nle]ARAEQLAQQAHSNRKL[Nle]EII-NH2 [[Lys(ClAc)^15]- ^XCRF]			EC50 (CRF1R [1]): 0.08 ± 0.22 nM
[Lys(ClAc)^33]-^dFXCRF(12-41) (peptide)	1.85		
[Lys(ClAc)^15]-^dFXCRF(12-41) (peptide)	0.39		
CRF(9-41) (peptide)	4.03		
[Lys(ClAc)^13]-^XCRF (peptide)		0.03	
[Lys(ClAc)^14]-^dFXCRF(12-41) (peptide)	1.49		
[ClAc^0]-^dFXCRF(12-41) (peptide)	0.62		
SEEPPISLDLTFHLLREVLE[Nle]ARAEQLAQQAHK(ClAc)NRKL[Nle]EII-NH2 [[Lys(ClAc)^33]- ^XCRF]			EC50 (CRF1R [1]): 0.04 nM
Urocortin I (Ucn1) (from UniProt P55089 83-124) (peptide)		0.16	
[Lys(ClAc)^16]-^dFXCRF(12-41) (peptide)	1.06		
[Lys(ClAc)^31]-^dFXCRF(12-41) (peptide)	0.52		
corticotropin-releasing factor (CRF) (from UniProt P06850 154-196) (peptide)		0.11	
Ucn1(8-40): 33-mer N-truncated Ucn1 antagonist, introduced in this work for the first time (DLTFHLLRTLLELARTQSQRERAEQNRIIFDSV; ends and bridges not checked; UniProt P55089 90-122, looked up, fragment)			Receptor activation at 100 nM (CRF1R [1]): 8.20 ± 2.76%; CRF1R activation / residual activity up to the maximal tested concentration of 100 nM (CRF1R [1]): < 10%
[Lys(ClAc)^18]-^dFXCRF(12-41) (peptide)	0.59		
[Lys(ClAc)^13]-^dFXCRF(12-41) (peptide)	2.41		
SEEPPISLDLTFHLLRK(ClAc)VLE[Nle]ARAEQLAQQAHSNRKL[Nle]EII-NH2 [[Lys(ClAc)^17]- ^XCRF]			EC50 (CRF1R [1]): 0.08 nM
[Lys(ClAc)^16]-^XCRF (peptide)		0.2	
[Lys(ClAc)^15]-^XCRF (peptide)		0.08	
[Lys(ClAc)^18]-^XCRF (peptide)		0.03	
[Lys(ClAc)^17]-^XCRF (peptide)		0.08	
[Lys(ClAc)^17]-^dFXCRF(12-41) (peptide)	0.31		
[DPhe^12,Nle^21,38]-CRF(12-41) [^dFXCRF(12-41)]			Binding affinity of CRF1R relative to CRF (lower) (CRF1R [3]): ~ 10 fold; Receptor activation at 100 nM (CRF1R [1]): 0.53 ± 0.47%; CRF1R activation / residual activity up to the maximal tested concentration of 100 nM (CRF1R [1]): did not elicit any significant receptor activation
CRF(9-41): 33-mer antagonist obtained by N-terminal truncation of the first eight residues of CRF (DLTFHLLREVLEMARAEQLAQQAHSNRKLMEII; ends and bridges not checked; UniProt P06850 162-194, looked up, fragment)			Receptor activation at 100 nM (CRF1R [1]): 4.03 ± 1.27%; CRF1R activation / residual activity up to the maximal tested concentration of 100 nM (CRF1R [1]): < 10%
[Lys(ClAc)^31]-^XCRF (peptide)		0.06	
[DPhe^12,Nle^21,38]-CRF(12-41) (peptide)	0.53		
Urocortin I (DNPSLSIDLTFHLLRTLLELARTQSQRERAEQNRIIFDSVGK) [Ucn1, 40-mer endogenous peptide agonist of CRF1R]			EC50 (Figure 1B legend) (CRF1R [1]): Sub-nanomolar
[Lys(ClAc)^33]-^XCRF (peptide)		0.04	
Ucn1(8-40) (peptide)	8.2		
corticotropin-releasing factor (SEEPPISLDLTFHLLREVLEMARAEQLAQQAHSNRKLMEIIGK) [CRF, 41-mer endogenous peptide agonist of CRF1R]			EC50 (Figure 1B legend) (CRF1R [1]): Sub-nanomolar
